From US20230277625A1 (SIMCHA IL 18, published 2023)

T1: Mouse IL-18BP (amino acids 31-194), biotinylated (mouse, UniProt Q9Z0M9 29-193, biotin on the AviTag (BirA ligase))
T1 construct: also called mIL-18BP
T1 sequence: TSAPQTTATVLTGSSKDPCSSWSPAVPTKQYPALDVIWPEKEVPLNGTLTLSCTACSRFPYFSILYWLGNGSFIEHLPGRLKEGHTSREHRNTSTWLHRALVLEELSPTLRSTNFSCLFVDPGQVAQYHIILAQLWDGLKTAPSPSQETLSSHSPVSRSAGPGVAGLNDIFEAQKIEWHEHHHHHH

T2: Mouse IL-18Rα ectodomain (amino acids 19-329), biotinylated (mouse, UniProt Q61098 19-329, biotin on the AviTag (BirA ligase))
T2 construct: range 19-329; Secreted from Expi293 cells (H7 signal peptide removed); also called mIL-18Rα; mIL18Ra
T2 sequence: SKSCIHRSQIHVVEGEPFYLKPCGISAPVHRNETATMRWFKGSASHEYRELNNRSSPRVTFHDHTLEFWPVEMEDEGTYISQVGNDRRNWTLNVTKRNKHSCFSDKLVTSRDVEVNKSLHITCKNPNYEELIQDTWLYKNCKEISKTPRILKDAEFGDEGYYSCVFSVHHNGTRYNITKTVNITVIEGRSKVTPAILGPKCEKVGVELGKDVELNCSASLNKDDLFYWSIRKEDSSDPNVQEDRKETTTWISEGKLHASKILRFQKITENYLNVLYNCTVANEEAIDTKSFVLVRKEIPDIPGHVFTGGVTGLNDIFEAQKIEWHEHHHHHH


Columns and labels:
[1] = target: T1, Mouse IL-18BP (amino acids 31-194), …; test: SPR; KD for IL-18BP over KD for IL-18Rα
Experimental: (§1) Experiments were conducted using a Biacore T100 and carried out at 25° C. Biotinylated IL-18Rα or IL-18BP were immobilized onto a Biacore biotin capture chip (Series S CAP sensor chip, GE Healthcare) to yield an Rmax of ˜50 RU (IL-18Rα) or ˜10 RU (IL-18BP). Measurements were made with serial dilutions of the IL-18 variants in HEPES buffered Saline-P+buffer (10 mM HEPES pH 7.4, 150 mM NaCl, 0.005% surfactant P20). The surface was regenerated by three 60-sec injections of regeneration buffer (3/4 (v/v) 8M guanidine hydrochloride with 1/4 (v/v) 1M sodium hydroxide). Experiments were performed in multiple channels simultaneously for increased observations. All data were analyzed with the Biacore T100 evaluation software version 2.0 with a 1:1 Langmuir binding model.

[2] = target: T2, Mouse IL-18Rα ectodomain (amino acids …); test: SPR (Biacore T100), receptor captured via biotin, IL-18 as analyte
In short: (§2)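 Biotinylated IL-18Rα or IL-18BP captured on a biotin CAP chip (Rmax ~50 RU or ~10 RU respectively), with serial dilutions of IL-18 variants as analyte. Run at 25° C in HBS-P+ (10 mM HEPES pH 7.4, 150 mM NaCl, 0.005% P20); guanidine/NaOH regeneration. KD from 1:1 Langmuir fit.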

[3] = target: T1, Mouse IL-18BP (amino acids 31-194), …; test: on-yeast binding isotherms; KD ratio relative to WT IL-18
Experimental: (§3) Individual colonies of IL-18 yeast were grown overnight at 30° C. in SDCAA liquid media and induced in SGCAA liquid media for 1 day at 20° C. IL-18 display levels on yeast were verified by flow cytometry using an anti-cMyc tag antibody (anti-myc-PE; Cell Signaling Technologies). Receptor staining with biotinylated IL-18Rα (with or without IL-18R β) or biotinylated IL-18BP was performed in PBS supplemented with 0.5% BSA and 2 mM EDTA (PBE) on ice. All analysis was performed on a Sony SA3800 flow cytometer.

[4] = target: T2, Mouse IL-18Rα ectodomain (amino acids …); test: on-yeast binding isotherm (flow cytometry)
In short: (§4)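 Yeast displaying IL-18 variants were grown at 30 °C, then induced 1 day at 20 °C, with display checked by anti-myc-PE. Cells were stained on ice with biotinylated IL-18Rα (± IL-18Rβ) or biotinylated IL-18BP in PBS/0.5% BSA/2 mM EDTA. Binding was read by flow cytometry.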

[5] = target: T1, Mouse IL-18BP (amino acids 31-194), …; test: on-yeast binding isotherm (flow cytometry)
In short: as §4

[6] = target: T1, Mouse IL-18BP (amino acids 31-194), …; test: SPR, immobilized biotinylated mIL-18BP, representative sensorgram FIG. 11B; representative sensorgram, FIG. 11B
Experimental: By contrast, very little binding is observed with the same variants and mIL-18BP (right). FIG. 11B provides measurement of IL-18BP binding using representative surface plasmon resonance sensor grams between immobilized biotinylated mIL-18BP and the murine DR-IL-18 variants.
as §1

[7] = target: T1, Mouse IL-18BP (amino acids 31-194), …; test: SPR (Biacore T100), IL-18BP captured via biotin, IL-18 as analyte
Experimental: as §1

[8] = target: T1, Mouse IL-18BP (amino acids 31-194), …; test: SPR; KD(IL-18BP)/KD(IL-18Rα) normalized to WT IL-18
[9] = target: T2, Mouse IL-18Rα ectodomain (amino acids …); test: SPR
[10] = target: T1, Mouse IL-18BP (amino acids 31-194), …; test: SPR
[11] = target: T1, Mouse IL-18BP (amino acids 31-194), …; test: SPR; KD ratio relative to WT IL-18
Experimental: as §1

[12] = target: T1, Mouse IL-18BP (amino acids 31-194), …; test: on-yeast binding isotherm (flow cytometry): yeast-displayed murine IL-18 variant titrated with mIL-18BP, % max
Experimental: as §3

[13] = target: T1, Mouse IL-18BP (amino acids 31-194), …; test: on-yeast binding isotherms; KD for IL-18BP over KD for IL-18Rα
Experimental: as §3

[14] = target: T1, Mouse IL-18BP (amino acids 31-194), …; test: SPR (Biacore T100), IL-18BP captured via biotin, IL-18 as analyte; SPR; weak binding, 3.8 µM
Experimental: as §1

[15] = target: T1, Mouse IL-18BP (amino acids 31-194), …; test: yeast binding isotherms and SPR; members per FIG. 11A legend
[16] = target: T1, Mouse IL-18BP (amino acids 31-194), …; test: SPR; KD for IL-18BP over KD for IL-18Rα; SPR; ratio of measured KDs
Experimental: as §1

[17] = target: T1, Mouse IL-18BP (amino acids 31-194), …; test: SPR; KD ratio relative to WT IL-18; SPR; ratio normalized to WT
In short: as §2

[18] = target: T1, Mouse IL-18BP (amino acids 31-194), …; test: on-yeast binding isotherms; 10 µM used for NBD; on-yeast isotherm; ratio is a bound reckoned from 10 µM put in for NBD
Experimental: as §3

[19] = target: T1, Mouse IL-18BP (amino acids 31-194), …; test: on-yeast binding isotherms; KD ratio relative to WT IL-18; on-yeast isotherm; normalized ratio from 10 µM put in for NBD
Experimental: as §3

[20] = target: T1, Mouse IL-18BP (amino acids 31-194), …; test: SPR (Biacore T100), IL-18BP captured via biotin, IL-18 as analyte; SPR; very weak binding, about 15 µM
Experimental: as §1

[21] = target: T1, Mouse IL-18BP (amino acids 31-194), …; test: SPR; KD ratio relative to WT IL-18; SPR; normalized ratio from 30 µM put in for NBD
Experimental: as §1

[22] = target: T1, Mouse IL-18BP (amino acids 31-194), …; test: SPR; 30 µM used for NBD; SPR; ratio is a bound reckoned from 30 µM put in for NBD
Experimental: as §1

Row | Binder | Kd [2] [nM] | Kd [4] [nM] | Kd [15] [nM] | KD ratio IL-18BP/IL-18Rα [16] | Dissociation Constant Ratio normalized to WT IL-18 [17] | KD ratio IL-18BP/IL-18Rα [18] | Dissociation Constant Ratio normalized to WT IL-18 [19] | other results
1 | Mouse Interleukin-18 (mature form), wild type (ligand, also called mIL-18 WT; WT mIL-18) NFGRLHCTTAVIRNINDQVLFVDKRQPVFEDMTDIDQSASEPQTRLIIYMYKDSEVRGLAVTLSVKDSKMSTLSCKNKIISFEEMDPPENIDDIQSDLIFFQKRVPGHNKMEFESSLYEGHFLACQKEDDAFKLILKKKDENGDKSVMFTLTNLHQS | 0.6 | 11.3 |  |  |  |  |  | KD ratio IL-18BP/IL-18Rα [1]: 0.00183; Dissociation Constant Ratio normalized to WT IL-18 [3]: 1; Kd [5]: 2.13 nM; Kd [6]: 0.0008 nM; Kd [7]: 0.0011 nM; IL-18 BP:Rα Dissociation Constant Ratio [8]: 1; Kd [9]: 0.6 nM; Kd [10]: 0.0011 nM; Dissociation Constant Ratio normalized to WT IL-18 [11]: 1; EC50 (read off the curve) [12]: ~20 nM; KD ratio IL-18BP/IL-18Rα [13]: 0.188
2 | SEQ ID NO: 60 (murine DR-IL-18 variant mCS1) (ligand, Engineered variant) NFGRLHCTTAVIRNINDQVLFVDKRQPVFEDMTDIDQSASEPQTRLIIYGYADSRVRGKAVTLSVKDSKMSTLSCKNKIISFEEMDPPENIDDIQSDLIFFQKRVPGHNKMEFESSLYEGHFLACQKEDDAFKLILKKKDENGDKSVMFTLTNLHQS | 0.54 | 10.7 | > 1000 | 7040 | 3.84e+06 | > 935 | > 4960 | Kd [14]: 3800 nM
3 | SEQ ID NO: 67 (murine DR-IL-18 variant mB1) (ligand, Engineered variant) HFGRLHCTTAVIRNINDQVLFVDKRQPVFEDMTDIDQSASEPQTRLIIYGYADSDARAKAVTLSVKDSKMSTLSCKNKIISFEEMDPPENIDDIQSDLIFFQKSVPGHNKMEFESSLYEGHFLACQKEDDAFKLILKKKDENGDKSVMFTVTNLHQS | 0.7 | 17.9 | > 1000 | 21000 | 1.15e+07 | > 559 | > 2960 | Kd [20]: 14700 nM
4 | SEQ ID NO: 64 (murine DR-IL-18 variant mE8) (ligand, Engineered variant) NFGRLHCTTAVIRNINDQVLFVDKRQPVFEDMTDIDQSASEPQTRLIIYVYTDGRRRGKAVTLSVKDSKMSTLSCKNKIISFEEMDPPENIDDIQSDLIFFQKKVPGHDKMEFESSLYEGHFLACQKEDDAFKLILKKKDENGDKSVMFTLTNLHQS | 1.69 | 42 |  |  |  | > 238 | > 1260 | Dissociation Constant Ratio normalized to WT IL-18 [21]: > 9.68e+06; KD ratio IL-18BP/IL-18Rα [22]: > 17800
